According to patent US20020061552A1 (published 2002):

T1: Myc-tagged mNkd protein, in vitro translated (mouse, UniProt Q99MH6 1-471, labelled with 35S-methionine)
T1 construct: Made with the TNT coupled reticulocyte lysate system in the presence of 35S-methionine; also called Myc-mNkd; 35S-mNkd; not shown: Myc tag
T1 sequence: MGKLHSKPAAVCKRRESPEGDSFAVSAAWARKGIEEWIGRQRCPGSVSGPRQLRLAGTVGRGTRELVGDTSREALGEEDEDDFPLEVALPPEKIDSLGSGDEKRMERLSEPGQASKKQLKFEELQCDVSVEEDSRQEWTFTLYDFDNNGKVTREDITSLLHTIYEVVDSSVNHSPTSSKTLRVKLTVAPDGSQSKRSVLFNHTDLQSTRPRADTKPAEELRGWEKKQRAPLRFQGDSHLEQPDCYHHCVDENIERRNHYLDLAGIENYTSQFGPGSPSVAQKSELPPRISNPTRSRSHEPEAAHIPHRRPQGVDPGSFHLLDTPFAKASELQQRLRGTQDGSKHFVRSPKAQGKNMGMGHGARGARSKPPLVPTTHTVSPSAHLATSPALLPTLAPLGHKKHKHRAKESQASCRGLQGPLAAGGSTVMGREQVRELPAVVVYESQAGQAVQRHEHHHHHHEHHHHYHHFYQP

B1: GST fusion of the PDZ domain of Drosophila Dvl (other, UniProt P51140 252-324, looked up)
chain: TVSINMEAVNFLGISIVGQSNRGGDGGIYVGSIMKGGAVALDGRIEPGDMILQVNDVNFENMTNDEAVRVLRE
notes: domain: PDZ; also called PDZ domain alone; not shown: glutathione-S-transferase (GST)

Tests used:
[1] = molecular target: endogenous Dvl of HEK293 cells; test: cell-based or functional assay
[2] = molecular target: T1, Myc-tagged mNkd protein, in vitro …; test: GST pull-down, electrophoresis and autoradiography
Excerpt: The immunocomplexes were subjected to electrophoresis and autoradiography.

Row | Molecule | inhibition of the activation of the LEF-1 luciferase reporter by Wnt in HEK 293 cells [1] | binding result [2]
1 | Xpress tagged mNkd (from UniProt Q99MH6 1-471) | 75% | –
2 | B1 | – | no binding
